Biological target: Trastuzumab
Assay: SPR; antibody constructs immobilised on a Protein L Series S CM5 chip, increasing concentrations of Fc receptor flushed; Biacore 8K+, 25 °C, neutral pH; steady state affinity model
Conditions: remark: other sources report otherwise

B1: human FcγRIIa ECD, P12318 34-217 (receptor)
chain: QAAAPPKAVLKLEPPWINVLQEDSVTLTCQGARSPESDSIQWFHNGNLIPTHTQPSYRFKANNNDSGEYTCQTGQTSLSDPVHLTVLSEWLVLQTPHLEFQEGETIMLRCHSWKDKPLVKVTFFQNGKSQKFSHLDPTFSIPQANHSHSGDYHCTGNIGYTLFSSKPVTITVQVPSMGSSSPMG
For B1, which Kd is on record?
Its Kd is 543 nM.
